T1: human CEACAM5 on tumor cells (LOVO, LS174T, KATO3) (human, UniProt P06731 35-685)
T1 construct: whole, on cells; also called LOVO cells; LS174T cells
T1 sequence (looked up): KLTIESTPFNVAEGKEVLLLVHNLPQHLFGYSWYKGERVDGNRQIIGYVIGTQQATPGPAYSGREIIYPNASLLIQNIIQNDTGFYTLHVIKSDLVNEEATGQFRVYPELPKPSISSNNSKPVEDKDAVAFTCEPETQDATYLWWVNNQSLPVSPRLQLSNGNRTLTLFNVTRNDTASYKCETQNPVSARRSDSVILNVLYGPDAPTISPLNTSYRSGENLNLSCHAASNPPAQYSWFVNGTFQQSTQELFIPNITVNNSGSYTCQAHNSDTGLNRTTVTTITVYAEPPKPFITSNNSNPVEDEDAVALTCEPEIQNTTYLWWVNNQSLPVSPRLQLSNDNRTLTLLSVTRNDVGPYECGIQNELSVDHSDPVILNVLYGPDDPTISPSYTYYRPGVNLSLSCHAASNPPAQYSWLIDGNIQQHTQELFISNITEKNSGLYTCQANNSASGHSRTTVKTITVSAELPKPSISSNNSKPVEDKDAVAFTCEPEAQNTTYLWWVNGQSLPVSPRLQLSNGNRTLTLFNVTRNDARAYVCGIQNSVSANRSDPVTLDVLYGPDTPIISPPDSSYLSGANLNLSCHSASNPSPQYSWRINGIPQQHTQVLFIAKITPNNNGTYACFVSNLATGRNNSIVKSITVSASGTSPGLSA

T2: CEACAM1 overexpressed on SW620 cells (UniProt P13688 35-526, limits assumed)
T2 construct: whole, on cells; also called SW620-CEACAM1
T2 sequence (looked up): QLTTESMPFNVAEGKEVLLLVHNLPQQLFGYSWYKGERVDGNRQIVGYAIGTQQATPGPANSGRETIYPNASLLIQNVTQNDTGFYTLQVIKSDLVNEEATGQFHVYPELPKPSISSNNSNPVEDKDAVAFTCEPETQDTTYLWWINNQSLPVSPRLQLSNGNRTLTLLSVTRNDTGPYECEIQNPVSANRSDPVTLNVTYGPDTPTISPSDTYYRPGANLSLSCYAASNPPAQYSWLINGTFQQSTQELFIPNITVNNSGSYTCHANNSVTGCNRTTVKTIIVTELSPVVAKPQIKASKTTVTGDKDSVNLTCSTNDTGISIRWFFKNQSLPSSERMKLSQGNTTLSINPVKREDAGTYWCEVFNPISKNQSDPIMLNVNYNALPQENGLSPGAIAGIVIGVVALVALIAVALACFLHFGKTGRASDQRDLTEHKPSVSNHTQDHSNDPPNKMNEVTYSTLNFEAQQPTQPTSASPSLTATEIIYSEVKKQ

T3: CEACAM3 overexpressed on SW620 cells (UniProt P40198 35-252, limits assumed)
T3 construct: whole, on cells; also called SW620-CEACAM3
T3 sequence (looked up): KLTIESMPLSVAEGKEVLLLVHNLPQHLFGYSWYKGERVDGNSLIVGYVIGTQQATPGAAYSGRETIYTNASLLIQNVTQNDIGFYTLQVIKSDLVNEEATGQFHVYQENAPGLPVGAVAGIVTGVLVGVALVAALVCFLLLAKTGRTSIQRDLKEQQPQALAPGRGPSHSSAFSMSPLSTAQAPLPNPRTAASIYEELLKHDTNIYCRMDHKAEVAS

T4: human CEACAM5 protein (human, UniProt P06731 35-685, limits assumed)
T4 construct: also called CD66e
T4 sequence (looked up): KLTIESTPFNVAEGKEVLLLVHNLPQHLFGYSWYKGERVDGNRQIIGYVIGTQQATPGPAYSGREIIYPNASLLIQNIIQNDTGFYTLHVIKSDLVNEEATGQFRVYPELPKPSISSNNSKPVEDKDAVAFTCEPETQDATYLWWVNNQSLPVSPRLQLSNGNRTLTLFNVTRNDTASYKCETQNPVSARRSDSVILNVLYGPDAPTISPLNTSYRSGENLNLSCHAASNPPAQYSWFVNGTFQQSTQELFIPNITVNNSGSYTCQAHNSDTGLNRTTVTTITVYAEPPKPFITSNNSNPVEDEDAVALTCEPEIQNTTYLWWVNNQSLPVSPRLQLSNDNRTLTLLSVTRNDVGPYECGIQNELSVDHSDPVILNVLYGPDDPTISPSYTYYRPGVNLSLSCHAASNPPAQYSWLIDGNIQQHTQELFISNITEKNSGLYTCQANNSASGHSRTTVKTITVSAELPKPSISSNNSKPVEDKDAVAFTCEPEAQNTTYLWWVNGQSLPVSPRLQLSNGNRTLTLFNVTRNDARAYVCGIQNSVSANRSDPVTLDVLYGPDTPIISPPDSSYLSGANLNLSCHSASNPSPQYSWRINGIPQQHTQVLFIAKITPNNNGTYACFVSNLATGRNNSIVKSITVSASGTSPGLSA

T5: CEACAM8 overexpressed on CHO cells (UniProt P31997 35-320, limits assumed)
T5 construct: whole, on cells; also called CHO-CEACAM8
T5 sequence (looked up): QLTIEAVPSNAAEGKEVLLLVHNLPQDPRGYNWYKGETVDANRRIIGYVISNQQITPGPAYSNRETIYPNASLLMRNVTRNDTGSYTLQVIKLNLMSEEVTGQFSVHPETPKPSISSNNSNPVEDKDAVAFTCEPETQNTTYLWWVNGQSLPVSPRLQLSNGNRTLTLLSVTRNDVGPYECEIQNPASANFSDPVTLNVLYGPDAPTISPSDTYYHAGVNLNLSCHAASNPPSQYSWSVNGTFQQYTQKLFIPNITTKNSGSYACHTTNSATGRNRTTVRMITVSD

T6: CEACAM7 overexpressed on CHO cells (UniProt Q14002 36-242, limits assumed)
T6 construct: whole, on cells; also called CHO-CEACAM7
T6 sequence (looked up): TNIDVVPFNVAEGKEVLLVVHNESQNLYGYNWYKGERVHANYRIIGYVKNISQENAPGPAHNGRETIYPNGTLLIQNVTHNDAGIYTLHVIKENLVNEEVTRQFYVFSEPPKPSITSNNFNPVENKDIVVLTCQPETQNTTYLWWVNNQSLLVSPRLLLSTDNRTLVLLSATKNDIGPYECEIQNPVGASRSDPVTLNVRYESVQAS


Experiments:
[1] = molecular target: T1, human CEACAM5 on tumor cells (LOVO, …); assay: FACS on LS174T cells
Procedure: LS174T cells (tumor cells with high expression of CEACAM5) were cultured in RPMI1640 medium containing 10% FBS. After digesting LS174T cells with TrypLE trypsin, the cells were centrifuged and resuspended in DPBS solution (FACS buffer, 4° C.) containing 2% BSA; then, the cells were added at 5×10⁵/100 μL/well to the U-shaped bottom 96-well plate, and a series of dilution solutions of antibody were added to the U-shaped bottom 96-well plate, mixture was incubated at 4° C. for 1 hour. After incubation, the mixture was centrifuged and the resulted supernatant was discarded; 100 μl of secondary antibody (anti-human IgG Fc-APC) was added to each well, and incubated at 4° C. for 1 hour. After incubation, the cells were washed once with FACS buffer, resuspended in 200 μl FACS buffer, and the fluorescence signal value was read in BD C6 plus.
The 47th amino acid (Cys) of the human-mouse chimeric antibody UM05-5L VH was mutated to Trp, and the mutated antibody was named UM05-5L C47W; the 47th amino acid (Trp) of the humanized antibody hUM05-3 VH was mutated to Cys, and the mutated antibody was named hUM05-3 W47C. As described in Example 10, the ability of the antibody binding to LS174T cells was tested.

[2] = molecular target: T2, CEACAM1 overexpressed on SW620 cells; assay: FACS on SW620-CEACAM1 cells
Procedure: (§1) Flow cytometry (FACS) was used to detect the binding of antibody to LOVO tumor cells naturally expressing human CEACAM5 or cells overexpressing different CEACAM family members. In short, cells were first collected, washed with PBS, counted, and diluted to obtain 2*10⁶/ml cell suspension; 10 μl of an antibody working solution was added to 100 μl of the cell suspension, and incubated at 4° C. for 30 min in the dark; after washing twice with PBS, a corresponding fluorescent-labeled secondary antibody Goat-anti-Human IgG (H+L) (Invitrogen) was added, incubated at 4° C. for 30 min in the dark, after washing twice with PBS, it was suspended in 400 μl of FACS buffer, and the binding profile of the antibody to the cells were detected by FACS.
(§2) The binding profile of the supernatants of the chimeric antibody UM05-5L and the control antibody UM05-8 (anti-CEACAM5 antibody, prepared by the hybridoma method in our laboratory) to different cells at a concentration of 3 μg/mL were detected, in which SW620-CEACAM1 was a cell overexpressing CEACAM1, SW620-CEACAM3 was a cell overexpressing CEACAM3, CHO-CEACAM6 was a cell overexpressing CEACAM6, CHO-CEACAM7 was a cell overexpressing CEACAM7, and CHO-CEACAM8 was a cell overexpressing CEACAM8. […]

[3] = molecular target: T3, CEACAM3 overexpressed on SW620 cells; assay: FACS on SW620-CEACAM3 cells
Procedure: as §1, §2

human CEACAM5 protein = molecular target: T4, human CEACAM5 protein; assay: ELISA, plate coated with human CEACAM5 protein at 1 µg/mL
Procedure: On the next day, it was first washed with 300 μL of PBST (Tween20: 0.5% o) for 3 times, then blocked with 100 μL/well of 5% BSA/PBS for 1 hour, and shaken at room temperature. Washing was performed 3 times with 300 μL of PBST. A series of dilution solutions of antibody samples were prepared with PBS, and added at 100 μL/well to the 96-well plate and shaken at room temperature for 1 hour. Washing was performed 3 times with 300 μL of PBST. A secondary antibody goat anti-human IgG HRP solution was prepared, added at 100 μL/well to the 96-well plate, and shaken at room temperature for 30 minutes. Washing was performed 4 times with 300 μL of PBST. 100 μL/well TMB was added to perform color development for 20 min. 100 μL/well of 0.6N H₂SO₄ was added to stop the color development, and OD450nm was detected.

[4] = molecular target: T1, human CEACAM5 on tumor cells (LOVO, …); assay: FACS on LOVO tumor cells naturally expressing human CEACAM5
Procedure: as §1
Furthermore, we used FACS to detect the EC50 of the chimeric antibody UM05-5L binding to LOVO tumor cells that naturally expressed human CEACAM5. […] Based on the above results, the chimeric antibody UM05-5L had excellent binding affinity, specificity and selectivity to CEACAM5.

[5] = molecular target: T1, human CEACAM5 on tumor cells (LOVO, …); assay: cell-based or functional assay
[6] = molecular target: T5, CEACAM8 overexpressed on CHO cells; assay: FACS on CHO-CEACAM8 cells
Procedure: as §1, §2

[7] = molecular target: T6, CEACAM7 overexpressed on CHO cells; assay: FACS on CHO-CEACAM7 cells
Procedure: as §1, §2

Binder | EC50 [1] | Emax MFI (Average fluorescence intensity) [1] | binding result [2] | binding result [3] | EC50 (human CEACAM5 protein) | EC50 [4] | ADCC activity (luciferase in Jurkat/ADC effector cells, LOVO target cells), EC50 [5] | binding result [6] | binding result [7]
humanized antibody hUM05-3 (antibody, V domains shown, detected with anti-human IgG Fc-APC) VH: EVQLVQSGAEVKKPGATVKISCKVSGYTFTDHTMHWMQQAPGQGLEWIGLIYPRDGSTIYNEKFQGRATLTADRSTDTAYMELSSLRSEDTAVYFCARPIYDGYSFDYWGQGTLVTVSS VL: QIVLTQSPATLSASPGERATLSCRASSSVSYMHWYQQKPGQAPKRWIYDTSNRATGVPARFSGSGSGTDYTLTISSMEPEDAAVYYCQQWTRNPPTFGQGTKLELK | 0.53 µg/mL | 52900 MFI | – | – | – | – | – | – | –
hUM05-3 W47C (antibody, V domains shown, also called mutated humanized antibody hUM05-3 (VH Trp47 to Cys)) VH: EVQLVQSGAEVKKPGATVKISCKVSGYTFTDHTMHWMQQAPGQGLECIGLIYPRDGSTIYNEKFQGRATLTADRSTDTAYMELSSLRSEDTAVYFCARPIYDGYSFDYWGQGTLVTVSS VL: QIVLTQSPATLSASPGERATLSCRASSSVSYMHWYQQKPGQAPKRWIYDTSNRATGVPARFSGSGSGTDYTLTISSMEPEDAAVYYCQQWTRNPPTFGQGTKLELK | 1.47 µg/mL | 34400 MFI | – | – | – | – | – | – | –
human-mouse chimeric antibody UM05-5L (antibody, human IgG1, kappa, V domains shown, expressed in HEK293) VH: QVQLQQSDADLVKPGASVKISCKVSGYTFTDHTIHWMKQRPEQGLECIGYIYPRDGNTKYNEKFKGKATLTADRSSITAYMQLNSLTSEDSAVYFCARPIYDGYSFDYWGQGTTLTVSS VL: QIVLTQSPAIMSASPGEKVTMTCRASSSVSYMHWYQQKSGTSPKRWIYDTSKLASGVPARFSGSGSGTSYSLTISSMAAEDAATYYCQQWTRNPPTFGAGTKLELKR | 0.81 µg/mL | 79700 MFI | no binding (tested: 3 µg/mL) | no binding (tested: 3 µg/mL) | 0.105 µg/mL | 3.17 µg/mL | 0.85 µg/mL | no binding (tested: 3 µg/mL) | no binding (tested: 3 µg/mL)
UM05-5L C47W (antibody, human IgG1, kappa, V domains shown, also called mutated human-mouse chimeric antibody UM05-5L (VH Cys47 to Trp)) VH: QVQLQQSDADLVKPGASVKISCKVSGYTFTDHTIHWMKQRPEQGLEWIGYIYPRDGNTKYNEKFKGKATLTADRSSITAYMQLNSLTSEDSAVYFCARPIYDGYSFDYWGQGTTLTVSS VL: QIVLTQSPAIMSASPGEKVTMTCRASSSVSYMHWYQQKSGTSPKRWIYDTSKLASGVPARFSGSGSGTSYSLTISSMAAEDAATYYCQQWTRNPPTFGAGTKLELKR | 2.46 µg/mL | 55200 MFI | – | – | – | – | – | – | –
